Measured values reported in a protein production outcome set (Wang et al. 2014).

test: label from the status in PepcDB records

Sequence | protein production
MASSSSLSLSFPSSSLSRTWDYDVFPSFHGEDVRKAFLSQILKKEFGRKAINFFVDHEMERGEFIGPVLKQAIKGSKIALVLLSKNYASSWCCLDELVEIMKKESGQTVITIFYEVDPNEVKKQTGDFGKAFKETCQGKTEEKVQTWRKALEGVGLATIAGFHSSNWFVFFI | not failed
MASSSSTYRSSSSSDGGNNNPSDSVVTVDERKRKRMLSNRESARRSRMRKQKHVDDLTAQINQLSNDNRQILNSLTVTSQLYMKIQAENSVLTAQMEELSTRLQSLNEIVDLVQSNGAGFGVDQIDGCGFDDRTVGIDGYYDDMNMMSNVNHWGGSVYTNQPIMANDINMY | failed
MASSYTLMLFLCLSIFLIASTEMMAVEGRICERRSKTWTGFCGNTRGCDSQCKRWERASHGACHAQGFPVSGIPSALPTVTHAKQREKMSAMGAYGITYFVGSIIGLLFVQGFEPEKGTLFKEQKGGVSKIDPKP | failed
MASTAVSELVFFIVTLLITASAVAVLSDQTIHIVYGMQSSSQRTTDMIQENFAIINNPDQIPYDNGYVFYIKNTGSVGFAFDNTSISVLVDGSAVTGKYVKFISLENSSILVPGQVGEIVVNETLSGYNSITISLGTGVSHTFNFEV | failed
MASYYEILDVPRSASADDIKKAYRRKALQWHPDKNPDNKEFAEKKFKEVAEAYEVLSDKHKREIYDRYGREGLTGTGTGPSRAEAGSGGPGFTFTFRSPEEVFREFFGSGDPFAELFDDLGPFSELQNRGSRHSGPFFTFSSSFPGHSDFSSSSFSFSPGAGAFRSVSTSTTFVQGRRITTRRIMENGQERVEVEEDGQLKSVTINGVPDDLALGLELSRREQQPSVTSRSGGTQVQQTPASCPLDSDLSEDEDLQLAMAYSLSEMEAAGKKPAGGREAQHRRQGRPKAQHQDPGLGGTQEGARGEATKRSPSPEEKASRCLIL | not failed
MASYYSGFLGCEEPHFLESCSLCRKHLGLNSDIFMYRGDKAFCSNECREEQIESDEAKERKWKKSSRSLRKNSSETKESAAGNTVRTGTLVVA | failed
MATEPEAAEPVVPSLVDRYFTRWYKPDVKGKFCEDHCILQHSNRICVITLAESHPVLQSGKTIKSISYQISTNCSRLQNKVSGKFKRGAQFLTELAPLCKIYCSDGEEYTVSSCVRGRLMEVNENILHKPSILQEKPSTEGYIAVVLPKFEESKSITEGLLTQKQYEEVMVKRINATTATS | failed
MATEPIRIGVVGASPDRGWAADAHLPALQHLPQYKITAVGTRRADSAHRAARRYGATHAFTDPRSLAAHPDVELVAIVVKVPDHARLVEAALAAGKHVLCEWPLARTTEEAAQLTAAAHGAGVVNAVGLQARHTPTVVRARELIRQGYVGRVTSVTVYSTRGVAAGGRLPAAFAYTLDSTNGAGTLEVAGGHTLDAVQYLLGREMTGLSAALSVQHPRITLDEDARQTGATSPDHVALHATLEGGAALVVHIHDAKNSGAGTRIEISGTQGELAIVSTGPRSGSGLQISELALLGAQGTEPSGQELPFPGSWGTAVPADGLDAAQHTMAVQYAALAADIREGGSRVPRFADGIELHRLLDAVRLSSATGCRLERRAGERWPVSSPWPRRRRSR | failed
MATEPPKIVWNEGKRRFETEDHEAFIEYKMRNNGKVMDLVHTYVPSFKRGLGLASHLCVAAFEHASSHSISIIPSCSYVSDTFLPRNPSWKPLIHSEVFKSSI | not failed
MATFDTRHRTALTMSADRLEQLKTFHEEDPEDPFTRYALAQEHLKHDNASRALALFEELVETDPDYVGTYYHLGKLYERLDRTDDAIDTYAQGIEVAREEGTQKDLSELQDAKLKAEGLEHHHHHH | not failed
MATFEEVSVLGFEEFDKAVKEHESKTIFAYFSGSKDTEGKSWCPDCVEAEPVIREGLKHVTEDCVFIYCQVGDKPYWKDPNNDFRQKLKITAVPTLLKYGTPQKLVESECCQSSLVEMIFSED | not failed
MATFFLVSFLSFSKWKEKRQVGLWGPEAAVTEEEEEEAGARRSGPGLAGRRLRGKGRRGRVASPAGRPDTLSRRGAGERAGCLGAGDRGLRHSDRHSPLGRGRAAPGMATSRQTASPRTRMDYLYSCQVDAMHSGMSVTRLVTQPDVLPAHRRRDIKMAAPRSCVLWSYCGHGWSRLAGDCRLPGFRRSWLGATLSARSLSQEKRAAETHFGFETVSEKEKGGKVYQVFQSVARKYDLMNDMMSLGIHRAWKDLLIRKMHPLPGTQLLDVAGGTGDIAFRFLSYVQTQHERKQRRQLRTRQNLSWEEIARKYQSKEDPLGGSLVMVCDINREMLKVGKQKALARGHTADLCECDAKLVYTVSFSSRSFTQALQEAHRVLKPGGRFLCLEFSQVNDPLISRLYDLYSFQVIPVIGEVIAGDWKSYQYLVESIRKFPNQEEFKDMIEDAGFQKVTYESLTSGIVAIHSGFKL | failed
MATFRKRGKYWEYRVKYTDSAGKQLVASHGGYRLKSSAQDAAEAVEDDLKRGGDPSKQDVLLLDYWDQWAEAYRINGKSINTVYRYKLFRKHLKSRFDGRKLNSIRPIEWQKFINDFAAGKDRKEKTTRKRPRERSKDIVTKMNSYVRGMVKAAINERILFSDFTFGTKTSGVRSSGKVKVLDSRDFAKVKAIAIERASYRNIGALAVYIGSMTGMRISEVLALTWPDIDTKLCVIHVTRSWDHLYGTGFKPTKTDSSVRDIEISPSVIELLNKIHQEQAASYLRTGYRDEDQMIMRDPRHNVITDSACNKALHVIQNKAGIPEDKQITFHGLRHSHVSYLISKGVDIYYISKRLGHSDVTITMKVYGHLLDSQRKQEAHKAVLFMDQI | failed
MATGGLAIIQSMKHKLPPSERKLADYILAHPHKAIESTVNEISALANSSDAAVIRLCKSLGLKGFQDLKMRVAGDLAKPTFQGYRDIVPHEPLPSISEKTAGNAIQAIQDTSDLMDYKELERAVSLLLKAHTVHFIGLGASGIVAKDAQQKWLRIHKQATAFTDTHLVASLIANADKDDIVFAISFSGETQEIVELFAMAKEKGITTISLTQFSQTSVSALADVPLYTAHSNEALIRSAATSSRLAQLFIIDVLFLGMAAEQYETTTGYIDKTRAAIQSMRIK | not failed
MATMNEKDYYEILGVSKDATSRDIQKAFQQKARKLHPDVNKEPDAEEKFKEVSEAYAVLSDEQKRARYDAMRSGNPFAGAPTASPYGGGYAGSAGYGNPFDGGFPFGGAWGQPRRGQAAYNPESGANVVVDIKLDAKEAKSGAHKTVRYTRFDTCGHCGGSGSVSSEHAHTCPSCGGRGHIDVDLSFLFGAGTFQTVCPECGGSGKVVADPCPDCGGSGRIRVTSEQTIEFPAGTHDGDEVRIPNMGHAGTNGASGGDLVGRAHVEAERLEGKARTGFYLMGIIAPFLVLSAISGVFSAFAMMCFIPFAMGLFMVLSDGVLHRSLLWWKRGAMQFANGFANGFMFALVSVWFASCSQQAMLSPYGMQ | failed
MATNIPCEVVAFSDRKLKPLIYVYSFPGLTRRTKLKGNILLDYTLLSFSYCGTYLASYSSLPEFELALWNWESSIILCKKSQPGMDVNQMSFNPMNWRQLCLSSPSTVSVWTIERSNQEHCFRARSVKLPLEDGSFFNETDVVFPQSLPKDLIYGPVLPLSAIAGLVGKEAETFRPKDDLYPLLHPTMHCWTPTSDLYIGCEEGHLLMINGDTLQVTVLNKIEEESPLEDRRNFISPVTLVYQKEGVLASGIDGFVYSFIIKDRSYMIEDFLEIERPVEHMTFSPNYTVLLIQTDKGSVYIYTFGKEPTLNKVLDACDGKFQAIDFITPGTQYFMTLTYSGEICVWWLEDCACVSKIYLNTLATVLACCPSSLSAAVGTEDGSVYFISVYDKESPQVVHKAFLSESSVQHVV | failed
MATNSSTEQSLTKKVWNLATTLAGQGIGFTDYITQLTYLLFLKMDAENVEMFGEESAIPTGYQWADLIAFDGLDLVKQYEETLKLLSELDNLIGTIYTKAQNKIDKPVYLKKVITMIDEEQWLIMDGDVKGAIYESILEKNGQDKKSGAGQYFTPRPLIQAMVDCINPQMGETVCDPACGTGGFLLTAYDYMKGQSASKEKRDFLRDKALHGVDNTPLVVTLASMNLYLHGIGTDRSPIVCEDSLEKEPSTLVDVILANPPFGTRPAGSVDINRPDFYVETKNNQLNFLQHMMLMLKTGGRAAVVLPDNVLFEAGAGETIRKRLLQDFNLHTILRLPTGIFYAQGVKANVLFFSKGQPTKEIWFYDYRTDIKHTLATNKLERHHLDDFVSCYNNRVEIYDAENNPQGRWRKYPVDEIIARDKTSLDITWIKPGGEVDDRSLAEL | not failed
MATPAYMSITGTKQGLITAGAFTADSVGNTYQEGHEDQVMVQGFSHELIIPRDPQSGQPTGQRVHKPVKITKVFDKSSPLLLAALTSGERLTEITIQWYRTSAAGTQEHYYTTKLEDAIIVDIKDYMHNCQDPANAHFTHLEDVEFTYRKITWTHEVSGTSGSDDWRSPVAG | not failed
MATQLVKGNTAVIIGAMYAGCDCYFGYPITPASEILHEASKYFPMVGRKFVQAESEEAAINMVYGAASTGKRVLCATSGPGMSLKQEGISFLAGSELPCVLVNVQRAGPGLGNIGPEQADYNQAVKGGGHGNYKNIVLAPNSVQEMCDCTAKAFELATKYKNPVIVLSDGVLGQMVEPLKFPEQAIKPEIDESWAVRGTKETRKNLVTSIFLDFKQLEEFNYALQEKYEIIKENEQDFEGYQLDDAEIILVSYGISSRISKTAVDVARKEGIKAGLFRPKTLFPFPEKELNKLAEKKCTFISVEMSNGQMAEDIKLATCCKRPIELVNRLGGNLIEVDQILAKIKEIAGGN | failed
MATRNALRIVSRRFSSGKVLSEEERAAENVFIKKMEQEKLQKLARQGPGEQAAGSASEAKVAGATASASAESGPKVSEDKNRNYAVVAGVVAIVGSIGWYLKAGGKKQPEVQE | failed
MATSGFKHLVVVKFKEDTKVDEILKGLENLVSQIDTVKSFEWGEDKESHDMLRQGFTHAFSMTFENKDGYVAFTSHPLHVEFSAAFTAVIDKIVLLDFPVAAVKSSVVATP | not failed
MATSGTYVTEVPLKGSAKNHYKRWKSENQLFPDAIGHHIQGVTVHEGDWDSHGAIKSWNYTCDGKQEVFKEKRELDDQKMAVTFRGLDGHVMEQLKVYDVIFQFVPKSQEGCVCKVTMFWEKRYEDSPEPIKYMKFVTSLAADMDDHILKNQSKA | failed
MATTNYSMIFIGNLQVAVDRSSLYESSDYSSFVARECLNKDSAMKPYDIFIFEKDEHFSVEDHYTAGNSSNESNTRPSDIFLKKKLVGLNPSILQLNREKRKATLKFSGDNKDILQSTLSSSKNINLSGGLFVSREYENKYVKFGARMRCDLVNRMKDVTLAWHESVSSTSDKNVELSSVENHKIAPKADGPGNSSNESSSSPFDIFLKKKVMRLKPSFLELNREKKKAAKGFSGIVIRPGMVLLKNYLSINNQVMIVNKCRQLGLGEGGFYQPGFQDGGLLHLKMMCLGKNWDCQTRRYGEIRPIDGSVPPRIPVEFSQLVEKAIKESKSLVATNSNETKGGDEIPLLLPDICVVNFYTSTGKLGLHQDKGESKKSLRKGLPIVSFSIGDSAEFLYGDQKDVDKADTLILESGDVLIFGERSRNVFHGVRSIRKILPPRLFFRKQIFNQVV | failed
MAVFVALGAFLMTLAGGWTAQRVTDRRHLVLGLAGGLMLGVVGLDLLPEALEAAGDEVFGVPAALLLFVAGFLLAHLVERLLAARRAAHGADEHEHRSPEVGLTAAAAMVGHSAMDGVAIGAAFQVGGGMGAAVAMAVIAHDFADGFNTYTLTSLYGNARRRAVAMLVADAIAPVLGASSTLLFTIPEGALGAYLGLFGGVLLYLAAAEILPEAHHEHPARSTLLCTVAGAAFIWLVVGIAE | failed
MAVGKKDIECPPYAEGTPLSDADIKEKRVTYVEDHPDIRYSWTAGQAISKFLNGLKEGKILGVKCNKCGRVMVPPRMFCELCYKPIDGWVELKDTGTVETFSISYIDPDARPLPEPVIVAVISIDGASPHMGIMHILDEVKPEDVYIGMKVKAVWKSEEEREGAITDIKYWKPLEGLEHHHHHH | failed
